We go through 13 molecules from patent US8420776 (US Dept. of Health and Human Services, dated 2013).

Residue numbers refer to the chain shown, from its start.

T1: Myc-Ube2G2, co-expressed in HEK 293T cells (human (100% identical to mouse MmUbc7), UniProt P60604 1-165)
T1 construct: Plasmid described in Tiwari and Weissman, 2001; also called Myc-MmUbc7; myc-tagged MmUbc7/Ube2G2
T1 sequence: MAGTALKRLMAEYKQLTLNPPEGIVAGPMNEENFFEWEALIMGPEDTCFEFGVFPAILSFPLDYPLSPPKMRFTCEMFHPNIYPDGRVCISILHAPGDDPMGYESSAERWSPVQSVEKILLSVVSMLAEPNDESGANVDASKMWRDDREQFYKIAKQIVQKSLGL

B1: GST-AO7 (92 to 259), the RING finger and surrounding regions of the E3 AO7 (other)
chain: QIHKISQALGHVAKEGLGTAMLYELIEKGKEILTDNNIPHGQCVICLYGFQEKEAFTKTPCYHYFHCHCLARYIQHMEQELTTQEQEQERQHVVTKQKAVGVQCPVCREPLVYDLASLKAAPEPQQPMELYQPSAESLRQQEELKLLYQRQQEKGGIIDLEAERNRYF
notes: range 92-259; also called A07; not shown: glutathione S-transferase (GST) fusion partner
B2: GST fusion of the cytoplasmic domain of yeast Cue1p (Cue1p 24-203) (other, UniProt P38428 24-203, looked up)
chain: QSNQHPSAQRLSATGVNAHGRPQGSTQNALRRTGRVNGGHPVTTQMVETVQNLAPNLHPEQIRYSLENTGSVEETVERYLRGDEFSFPPGFEPSRAPMGANAAVDNNAAGGGEFNDPRKKNMICAENLLDKFHVDLNEDMSNLSFKDLDIEERKRLLVWQARKNLETKLQSDKDLQSLLT
notes: range 24-203; also called GST-Cue1p 24-203; not shown: glutathione S-transferase (GST) fusion partner, N-terminal (pGEX4T-1)
B3: full length gp78 with both Cue domain mutations (gp78Cue-m1, 2) (enzyme)
chain: MPLLFLERFPWPSLRTYTGLSGLALLGTIISAYRALSQPEAGPGEPDQLTASLQPEPPAPARPSAGGPRARDVAQYLLSDSLFVWVLVNTACCVLMLVAKLIQCIVFGPLRVSERQHLKDKFWNFIFYKFIFIFGVLNVQTVEEVVMWCLWFAGLVFLHLMVQLCKDRFEYLSFSPTTPMSSHGRVLSLLVAMLLSCCGLAAVCSITGYTHGMHTLAFMAAESLLVTVRTAHVILRYVIHLWDLNHEGTWEGKGTYVYYTDFVMELTLLSLDLMHHIHMLLFGNIWLSMASLVIFMQLRYLFHEVQRRIRRHKNYLRVVGNMEARFAVATPEELAVNNDDCAICWDSMQAARKLPCGHLFHNSCLRSWLEQDTSCPTCRMSLNIADNNRVREEHQGENLDENLVPVAAAEGRPRLNQHNHFFHFDGSRIASWLPSFSVEVMHTTNILGITQASNSQLNAMAHQIQEGGRQVPYHLRLQVDQLTRSVEITTDNILEGRIQVPFPTQRSDSIRPALNSPVERPSSDQEEGETSAQTERVPLDLSPRLEETLDFGEVEVEPSEVEDFEARGSRFSKSADERQRMLVQRKDELLQQARKRFLNKSSEDDAASESFLPLEGASSDPVTLRRRMLAAAAERRLQKQQTS
notes: Full length, expressed in cells; also called Cue12M
B4: full length gp78 with the E2-m2 mutation (gp78E2-m2) (enzyme)
chain: MPLLFLERFPWPSLRTYTGLSGLALLGTIISAYRALSQPEAGPGEPDQLTASLQPEPPAPARPSAGGPRARDVAQYLLSDSLFVWVLVNTACCVLMLVAKLIQCIVFGPLRVSERQHLKDKFWNFIFYKFIFIFGVLNVQTVEEVVMWCLWFAGLVFLHLMVQLCKDRFEYLSFSPTTPMSSHGRVLSLLVAMLLSCCGLAAVCSITGYTHGMHTLAFMAAESLLVTVRTAHVILRYVIHLWDLNHEGTWEGKGTYVYYTDFVMELTLLSLDLMHHIHMLLFGNIWLSMASLVIFMQLRYLFHEVQRRIRRHKNYLRVVGNMEARFAVATPEELAVNNDDCAICWDSMQAARKLPCGHLFHNSCLRSWLEQDTSCPTCRMSLNIADNNRVREEHQGENLDENLVPVAAAEGRPRLNQHNHFFHFDGSRIASWLPSFSVEVMHTTNILGITQASNSQLNAMAHQIQEMFPQVPYHLVLQDLQLTRSVEITTDNILEGRIQVPFPTQRSDSIRPALNSPVERPSSDQEEGETSAQTERVPLDLSPRLEETLDFGEVEVEPSEVEDFEARGSRFSKSADERAAAGGGRKDELLQQARKRFLNKSSEDDAASESFLPLEGASSDPVTLRRRMLAAAAERRLQKQQTS
notes: Full length, expressed in cells; also called ΔB in the context of the full length gp78
B5: yeast Ubc7p, in vitro translated and labelled with 35S-methionine (enzyme, UniProt Q02159 1-165, looked up)
chain: MSKTAQKRLLKELQQLIKDSPPGIVAGPKSENNIFIWDCLIQGPPDTPYADGVFNAKLEFPKDYPLSPPKLTFTPSILHPNIYPNGEVCISILHSPGDDPNMYELAEERWSPVQSVEKILLSVMSMLSEPNIESGANIDACILWRDNRPEFERQVKLSILKSLGF
modifications: 35S-methionine label
B6: Ube2G1, in vitro translated and labelled with 35S-methionine (enzyme, rat, UniProt P62255 1-170, looked up)
chain: MTELQSALLLRRQLAELNKNPVEGFSAGLIDDNDLYRWEVLIIGPPDTLYEGGVFKAHLTFPKDYPLRPPKMKFITEIWHPNVDKNGDVCISILHEPGEDKYGYEKPEERWLPIHTVETIMISVISMLADPNGDSPANVDAAKEWREDRNGEFKRKVARCVRKSQETAFE
modifications: 35S-methionine label
notes: also called rat Ubc7 (Ube2g1)
B7: endogenous Ube2g1 of HEK 293T cells (enzyme, human, UniProt P62253 2-170, looked up)
chain: TELQSALLLRRQLAELNKNPVEGFSAGLIDDNDLYRWEVLIIGPPDTLYEGGVFKAHLTFPKDYPLRPPKMKFITEIWHPNVDKNGDVCISILHEPGEDKYGYEKPEERWLPIHTVETIMISVISMLADPNGDSPANVDAAKEWREDRNGEFKRKVARCVRKSQETAFE
B8: GST fusion of the gp78 cytoplasmic tail beginning after the RING finger (residues 429-643 of SEQ ID NO:2) (other)
chain: IASWLPSFSVEVMHTTNILGITQASNSQLNAMAHQIQEMFPQVPYHLVLQDLQLTRSVEITTDNILEGRIQVPFPTQRSDSIRPALNSPVERPSSDQEEGETSAQTERVPLDLSPRLEETLDFGEVEVEPSEVEDFEARGSRFSKSADERQRMLVQRKDELLQQARKRFLNKSSEDDAASESFLPLEGASSDPVTLRRRMLAAAAERRLQKQQTS
notes: also called gp78CΔR; gp78CAR; not shown: GST carrier and the pGEX4T-1 linker (N-terminal)
B9: GST fusion of the entire gp78 cytoplasmic tail (gp78C; residues 309-643 of SEQ ID NO:2) (other)
chain: IRRHKNYLRVVGNMEARFAVATPEELAVNNDDCAICWDSMQAARKLPCGHLFHNSCLRSWLEQDTSCPTCRMSLNIADNNRVREEHQGENLDENLVPVAAAEGRPRLNQHNHFFHFDGSRIASWLPSFSVEVMHTTNILGITQASNSQLNAMAHQIQEMFPQVPYHLVLQDLQLTRSVEITTDNILEGRIQVPFPTQRSDSIRPALNSPVERPSSDQEEGETSAQTERVPLDLSPRLEETLDFGEVEVEPSEVEDFEARGSRFSKSADERQRMLVQRKDELLQQARKRFLNKSSEDDAASESFLPLEGASSDPVTLRRRMLAAAAERRLQKQQTS
notes: also called gp78 cytoplasmic domain; not shown: glutathione S-transferase (GST) fusion partner, N-terminal (pGEX type vector)
B10: Ube2G2/MmUbc7, in vitro translated and labelled with 35S-methionine (enzyme)
chain: T1 sequence
modifications: 35S-methionine label
notes: Translated in wheat germ or rabbit reticulocyte lysate; also called in vitro translated Ube2G2
B11: GST-gp78Cuem2: gp78 C-terminal region with VLQDL to RLQVD mutation of residues 476 to 480 (other)
chain: B9 chain with V168R, D171V, L172D
notes: not shown: glutathione S-transferase (GST) fusion partner, N-terminal (pGEX type vector)
B12: GST-gp78CCue-m1: complete C-terminal region of gp78 with MFP to GGR mutation of residues 467 to 469 (other)
chain: B9 chain with M159G, F160G, P161R
notes: as for B11
B13: GST-gp78CCue-m1, 2: gp78 C-terminal region with both sets of Cue domain mutations (other)
chain: B9 chain with M159G, F160G, P161R, V168R, D171V, L172D
notes: as for B11

The target in test [1] is T2, UbcH5B, in vitro translated and labelled with 35S-methionine (human, UniProt P62837 1-147). The test can be described thus: GST pull-down, E2 translated in wheat germ and labelled with 35S-Met, equal counts.
Test [2] addresses T3, lysine 48-linked (K48) tetra-ubiquitin (UniProt P0CG48 1-76, four ubiquitins joined by lysine 48 isopeptide links).
T3 construct: the monomer is its first 76 residues
In words: GST pull-down, anti-ubiquitin immunoblot.

The target in test [3] is T2, UbcH5B, in vitro translated and …. In words: GST pull-down, E2 in vitro translated in wheat germ.
The target of test [4] is B5. In words: GST pull-down, E2 translated in wheat germ and labelled with 35S-Met, equal counts.
Test [5] deals with B10. The description is as above.
Test [6] concerns the target T1, Myc-Ube2G2, co-expressed in HEK 293T …. The test can be described thus: anti-Myc immunoprecipitation from co-transfected cells, anti-gp78 immunoblot.
For test [7], the target named is B2. The test can be described thus: GST pull-down, E2 in vitro translated in wheat germ.
In test [8] the target is B9. The test is described as above.
Test [9] deals with T4, N-terminal GFP fusion of gp78 residues 574-611 (GFP-574-611) (human, UniProt P42212 1-238 = GFP).
T4 construct: the vector encodes the enhanced variant; also called G2BD
The test can be described thus: co-immunoprecipitation with GFP fusion from HEK 293T cells.

Test [10] concerns the target B5. In words: GST pull-down, E2 in vitro translated in wheat germ.
For test [11], the target named is B9. In words: GST pull-down.

For B1, in [1], the “amount bound (% of input)” value is ~10 % of input.

For the molecule B2, the values for the binding result in [2] and in test [3] were “no binding (tested: 1 ug K48 tetra-ubiquitin)” and “no binding”, respectively. Moreover, the “amount bound (% of input)” value in test [4] and in test [5] was ~10 % of input throughout.

For the molecule B3, the binding result in [6] is “binds”.

For B4, in [6], the binding result was “no binding”.

In the case of B5, the binding result in test [7] is listed as “binds”; in test [8], “no binding”.

For B6, the binding result in [7] and in [8] was “no binding” in each case.

As to B7, the binding result in test [9] is reported as “no binding”.

Regarding B8, in [10], the binding result is on record as “no binding”. In addition, the “amount bound (% of input)” value in [5] was ~10 % of input.

As to B9, in [5], the “amount bound (% of input)” value is ~10 % of input.

With B10, the binding result in test [11] is listed as “binds”.

With B11, the binding result in [2] is “no binding (tested: 1 ug K48 tetra-ubiquitin)”.

In the case of B12, the binding result in test [2] is “no binding (tested: 1 ug K48 tetra-ubiquitin)”.

On to B13, for which the binding result in test [2] is recorded as “no binding (tested: 1 ug K48 tetra-ubiquitin)”.
